Source: publication PMC9723621

Tests used:
[1] = target: ArdK from plasmid R388 containing a C-terminal His tag (ArdKHT) (plasmid R388); test: SEC; S75 gel filtration of the purified protein in solution
[2] = target: T1, ArdK (SeMet, ArdKHT) (plasmid R388 (expressed in E. coli …, UniProt Q6I6B7 1-107)); test: X-ray crystallography (2.8 A); crystal structures only; protein in 20 mM Tris pH 7.5, 150 mM NaCl, 1 mM DTT, 1 mM EDTA (gel filtration buffer); complex and crystallization conditions not in the material; conditions: protein: recombinant; tags: C-terminal His; chain copies: 2; blunt
T1 sequence: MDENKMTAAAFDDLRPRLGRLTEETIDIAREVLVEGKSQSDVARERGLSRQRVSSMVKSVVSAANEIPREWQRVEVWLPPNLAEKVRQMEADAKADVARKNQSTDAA

[3] = target: T2, ArdK (ArdKHT) (plasmid R388 (expressed in E. coli …, UniProt Q6I6B7 1-107)); test: X-ray crystallography (2.6 A); crystal structures only; protein in 20 mM Tris pH 7.5, 150 mM NaCl, 1 mM DTT, 1 mM EDTA (gel filtration buffer); complex and crystallization conditions not in the material; conditions: protein: recombinant; tags: C-terminal His; chain copies: 2; blunt
T2 sequence: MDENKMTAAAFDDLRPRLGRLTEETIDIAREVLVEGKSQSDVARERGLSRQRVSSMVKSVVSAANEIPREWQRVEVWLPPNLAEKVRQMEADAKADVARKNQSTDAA

Question: How did the stoichiometry N [1] turn out when “ArdK from plasmid R388 containing a C-terminal His tag (ArdKHT) (natural protein)” was run?
Answer: 2

B1: DR operator, Pssb (DR_1/DR_2) (dsDNA)
DNA 1: GTATTGACACCTATTGACA
DNA 2: TGTCAATAGGTGTCAATAC
Question: Does B1 bind [2]?
Answer: binds

B2: IR operator, n = 3 spacer (IR_1/IR_2) (dsDNA)
DNA 1: GTAATGTCAATATTTGACA
DNA 2: TGTCAAATATTGACATTAC
Question: Does B2 bind [3]?
Answer: binds
